Positions count from the first letter of the chain named.
What was measured:
Assay in all cases: ELISA, antibody coated, OX40-ECD.His mutant supernatant; relative to silent alanine substitutions;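 further: captured OX40 mutant protein detected with HRP-labelled anti-His antibody, absorbance read-out, scaled to the mean signal of control mutants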
[1] = target: T1, human OX40-ECD.His N39A (human, UniProt P43489 29-214)
T1 construct: extracellular domain; not shown: C-terminal His-tag
T1 sequence (looked up): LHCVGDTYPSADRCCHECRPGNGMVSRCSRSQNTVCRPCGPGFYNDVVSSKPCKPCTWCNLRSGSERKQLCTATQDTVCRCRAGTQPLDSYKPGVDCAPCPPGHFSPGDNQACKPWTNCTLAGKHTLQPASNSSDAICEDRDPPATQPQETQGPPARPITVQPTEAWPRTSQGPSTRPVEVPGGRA

[2] = target: T2, human OX40-ECD.His N61A (human, UniProt P43489 29-214)
T2 construct: extracellular domain; not shown: C-terminal His-tag
T2 sequence (looked up): T1 sequence (looked up) with A11N, N33A

[3] = target: T3, human OX40-ECD.His S38A (human, UniProt P43489 29-214)
T3 construct: extracellular domain; not shown: C-terminal His-tag
T3 sequence (looked up): T1 sequence (looked up) with S10A, A11N

[4] = target: T4, human OX40-ECD.His E167A (human, UniProt P43489 29-214)
T4 construct: extracellular domain; not shown: C-terminal His-tag
T4 sequence (looked up): T1 sequence (looked up) with A11N, E139A

[5] = target: T5, human OX40-ECD.His D170A (human, UniProt P43489 29-214)
T5 construct: extracellular domain; not shown: C-terminal His-tag
T5 sequence (looked up): T1 sequence (looked up) with A11N, D142A

[6] = target: T6, human OX40-ECD.His P130A (human, UniProt P43489 29-214)
T6 construct: extracellular domain; not shown: C-terminal His-tag
T6 sequence (looked up): T1 sequence (looked up) with A11N, P102A

[7] = target: T7, human OX40-ECD.His P115A (human, UniProt P43489 29-214)
T7 construct: extracellular domain; not shown: C-terminal His-tag
T7 sequence (looked up): T1 sequence (looked up) with A11N, P87A

[8] = target: T8, human OX40-ECD.His D137A (human, UniProt P43489 29-214)
T8 construct: extracellular domain; not shown: C-terminal His-tag
T8 sequence (looked up): T1 sequence (looked up) with A11N, D109A

[9] = target: T9, human OX40-ECD.His P135A (human, UniProt P43489 29-214)
T9 construct: extracellular domain; not shown: C-terminal His-tag
T9 sequence (looked up): T1 sequence (looked up) with A11N, P107A

[10] = target: T10, human OX40-ECD.His K142A (human, UniProt P43489 29-214)
T10 construct: extracellular domain; not shown: C-terminal His-tag
T10 sequence (looked up): T1 sequence (looked up) with A11N, K114A

B1: 1.134.9-u1-IgG1L (antibody, V domains shown)
VH: QVQLQESGPGLVKPSGTLSLTCAVSGGSISSYNWWSWVRQPPGKGLEWIGEIYHGGNTNYNPSLKSRVTMSVDNSKNQFSLKLSSVTAADTAVYYCARAPGDWGGSPYFDFWGQGTLVTVSS
VL: SSELTQDPAVSVALGQTVRITCQGDNLRTYYASWYQQKPGQAPILLIYGRNKRPSGIPDRFSGSSSGNTASLTITGAQAEDEAAYYCNSRDSSGNPVVFGGGTKLTVL
notes: fully human IgG1, lambda
Fold Change [1]: 0.988
Fold Change [2]: 0.99
Fold Change [3]: 0.997
Fold Change [4]: 0.998
Fold Change [5]: 1.01
Fold Change [6]: 1.01
Fold Change [7]: 0.632
Fold Change [8]: 0.851
Fold Change [9]: 0.899
Fold Change [10]: 0.921

Reference: patent publication US20210171647A1 (WUXI BIOLOGICS SHANGHAI, published 2021)
